Assay [1] addresses T1, recombinant FGFR1 antigen (on the SPR chip; PA-269#37 or Sino Biologicals #10616-H08H, not told which) (human, UniProt P11362-7 22-374).
T1 sequence (looked up): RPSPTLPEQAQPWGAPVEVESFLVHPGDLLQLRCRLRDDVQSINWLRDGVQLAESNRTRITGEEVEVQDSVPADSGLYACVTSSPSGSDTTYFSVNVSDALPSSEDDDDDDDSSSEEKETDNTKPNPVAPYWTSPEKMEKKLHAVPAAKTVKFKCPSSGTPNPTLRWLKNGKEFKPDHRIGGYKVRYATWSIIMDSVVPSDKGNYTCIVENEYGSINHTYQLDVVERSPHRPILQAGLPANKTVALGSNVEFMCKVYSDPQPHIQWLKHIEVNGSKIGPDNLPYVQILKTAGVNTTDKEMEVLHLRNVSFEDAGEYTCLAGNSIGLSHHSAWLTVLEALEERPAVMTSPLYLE
Put plainly: SPR (BIAcore T100), FGFR1 on a CM5 chip, antibody in flow, 1:1 model. As to the method: Analysis of surface plasmon resonance was performed using the BIAcore T100 System Operation Kit (BIAcore; GE Healthcare). […] Different antibody variants were diluted in HBS-P buffer (10 mmol/L HEPES, pH 7.4, 0.15 mol/L NaCl and 0.05% surfactant P20) and passed over the sensor chip surface (25 μl/min). The sensory surface was washed with HBS-P buffer, and then regenerated using 10 mmol/L glycine-HCl (pH 2). Different antibody concentrations were tested ([…]). Different cyclic kinetic properties were determined, and the results were analyzed using the 1:1 (Langmuir) binding model, inclusive of the association rate constant (Kₒₙ), dissociation rate constant (Koff) and dissociation constant (Kd) (Biacore, GE Healthcare).
(Surface plasmon resonance follows binding to a sensor surface in real time, without labels.)

In assay [2] the target is T2, fibroblast growth factor receptor 1 (FGFR1), preparation not stated (UniProt P11362 22-376, limits assumed).
T2 construct: also called FGF receptor; FGFR1 receptor
T2 sequence (looked up): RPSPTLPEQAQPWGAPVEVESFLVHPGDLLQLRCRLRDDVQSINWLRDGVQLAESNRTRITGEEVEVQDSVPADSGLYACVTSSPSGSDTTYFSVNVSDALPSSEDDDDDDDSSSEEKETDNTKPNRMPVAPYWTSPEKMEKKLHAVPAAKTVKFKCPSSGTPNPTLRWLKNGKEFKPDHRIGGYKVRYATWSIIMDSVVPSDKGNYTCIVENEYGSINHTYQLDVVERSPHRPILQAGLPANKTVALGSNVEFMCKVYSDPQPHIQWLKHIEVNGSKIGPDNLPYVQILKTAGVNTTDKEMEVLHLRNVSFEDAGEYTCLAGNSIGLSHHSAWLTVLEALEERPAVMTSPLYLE
Put plainly: method not stated; antibody from the CHO-OM8-21 cell line; antibody from the CHO-OM8-21 cell line.

Consider one molecule from patent publication US20180355045A1 (LIMITED LIABILITY COMPANY ONCOMAX LLC ONCOMAX, published 2018).

B1: humanized anti-FGFR1 antibody OM-RCA-01 (VH3/VL5) (antibody, human IgG1, kappa, V domains shown)
VH: QVQLQESGPGLVKPSQTLSLTCTVSGYSITSDYAWSWIRQHPGKGLEWIGYITYSGTTYYNPSLKSRVTISVDTSKNQFSLKLSSVTAADTAVYYCARDGNYFDYWGQGTLVTVSS
VL: DIQLTQSPSFLSASVGDRVTITCRASSSVSSSYLHWYQQKPGKAPKLLIYRTSTLQSGVPSRFSGSGSGTEFTLTISSLQPEDFATYYCQQWSGYPLTFGGGTKVEIKR
notes: Human IgG1 (IGHG1*03) / kappa; also called VH3A/L5; OM1
For orientation: Kd means the equilibrium constant for the complex coming apart. For B1, the Kd in assay [1] was determined as 1.59 nM; in assay [2] it was 9.27 nM.
